According to the supplement of paper PMC9112550, “Optimization of the antimicrobial peptide Bac7 by deep mutational scanning” (BMC Biology, 2022):

System: Escherichia coli TOP10
Experiment: shrunken log2 fold change of peptide-encoding DNA abundance (4.5 h post-induction vs induction); higher = less antimicrobial activity (less host growth inhibition)
Settings: time post-induction: 4.5 h; library: site-saturation at positions 5, 18, 19, 20
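Note: peptides expressed intracellularly from a pBAD plasmid library in pooled LB shake-flask culture, induced with 0.3% L-arabinose, DNA abundance read by NGS, three biological replicates, DESeq2 with apeglm shrinkage.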

Row | Sequence | shrunken log2 fold change
1 | RRIRWRPPRLPRPRPRPRYAPRP | 0.32
2 | RRIRLRPPRLPRPRPRPPLAPRP | 0.519
3 | RRIRIRPPRLPRPRPRPHKYPRP | -1.08
4 | RRIRGRPPRLPRPRPRPTAGPRP | 1.15
5 | RRIRPRPPRLPRPRPRPNTDPRP | -0.374
6 | RRIRGRPPRLPRPRPRPIYVPRP | 1.23
7 | RRIRNRPPRLPRPRPRPNGRPRP | -0.00776
8 | RRIRPRPPRLPRPRPRPCDRPRP | 0.0787
9 | RRIRHRPPRLPRPRPRPLRNPRP | -0.0741
10 | RRIRGRPPRLPRPRPRPNQDPRP | 0.0491
11 | RRIRNRPPRLPRPRPRPKFCPRP | -0.198
12 | RRIRFRPPRLPRPRPRPVSGPRP | -0.0636
13 | RRIRWRPPRLPRPRPRPTWTPRP | 0.303
14 | RRIRPRPPRLPRPRPRPDDVPRP | -0.0212
15 | RRIRNRPPRLPRPRPRPPLCPRP | 0.167
16 | RRIRPRPPRLPRPRPRPHTQPRP | 0.0349
17 | RRIRRRPPRLPRPRPRPHIWPRP | -0.0694
18 | RRIRCRPPRLPRPRPRPIKMPRP | -0.185
19 | RRIRIRPPRLPRPRPRPCEHPRP | -0.00165
20 | RRIRVRPPRLPRPRPRPHHVPRP | -0.261
21 | RRIRNRPPRLPRPRPRPIWPPRP | 0.152
22 | RRIRTRPPRLPRPRPRPDKCPRP | -0.229

Row | Sequence | shrunken log2 fold change
23 | RRIRLRPPRLPRPRPRPQSNPRP | -0.0786
24 | RRIRNRPPRLPRPRPRPTVDPRP | 0.0566
25 | RRIRWRPPRLPRPRPRPLPDPRP | 0.672
26 | RRIRDRPPRLPRPRPRPALNPRP | -0.0576
27 | RRIRRRPPRLPRPRPRPHMRPRP | 0.29
28 | RRIRERPPRLPRPRPRPGEPPRP | -0.107
29 | RRIRFRPPRLPRPRPRPDYSPRP | -0.458
30 | RRIRGRPPRLPRPRPRPWHYPRP | 0.0232
31 | RRIRERPPRLPRPRPRPQMAPRP | 0.00684
32 | RRIRQRPPRLPRPRPRPEDRPRP | -0.0214
33 | RRIRSRPPRLPRPRPRPVGQPRP | 0.236
34 | RRIRSRPPRLPRPRPRPFWWPRP | 0.309
35 | RRIRLRPPRLPRPRPRPARYPRP | -0.0839
36 | RRIRYRPPRLPRPRPRPFLIPRP | -1.15
37 | RRIRHRPPRLPRPRPRPIGKPRP | 0.0218
38 | RRIRSRPPRLPRPRPRPIQMPRP | -0.103
39 | RRIRFRPPRLPRPRPRPDTKPRP | -0.123
40 | RRIRWRPPRLPRPRPRPGDAPRP | 0.418
41 | RRIRTRPPRLPRPRPRPGFDPRP | -0.164
42 | RRIRERPPRLPRPRPRPWLHPRP | -0.262
43 | RRIRPRPPRLPRPRPRPDQVPRP | 0.0258
44 | RRIRQRPPRLPRPRPRPTVDPRP | 0.349

Row | Sequence | shrunken log2 fold change
45 | RRIRSRPPRLPRPRPRPVFPPRP | -0.118
46 | RRIRYRPPRLPRPRPRPHFPPRP | -0.00195
47 | RRIRQRPPRLPRPRPRPEFCPRP | 0.0723
48 | RRIRGRPPRLPRPRPRPRPSPRP | 0.49
49 | RRIRERPPRLPRPRPRPKCAPRP | 0.0581
50 | RRIRNRPPRLPRPRPRPREEPRP | -0.0547
51 | RRIRIRPPRLPRPRPRPDFIPRP | -0.447
52 | RRIRQRPPRLPRPRPRPIFFPRP | -0.0319
53 | RRIRMRPPRLPRPRPRPNTYPRP | -0.0596
54 | RRIRFRPPRLPRPRPRPCDPPRP | -0.0886
55 | RRIRMRPPRLPRPRPRPNKKPRP | -0.0238
56 | RRIRFRPPRLPRPRPRPEEKPRP | -0.0254
57 | RRIRNRPPRLPRPRPRPTYNPRP | -0.692
58 | RRIRVRPPRLPRPRPRPCAWPRP | 0.27
59 | RRIRIRPPRLPRPRPRPRLDPRP | 0.1
60 | RRIRQRPPRLPRPRPRPVNPPRP | -0.085
61 | RRIRCRPPRLPRPRPRPTAEPRP | 0.363
62 | RRIRLRPPRLPRPRPRPAKPPRP | 1.22
63 | RRIRMRPPRLPRPRPRPKECPRP | -0.0981
64 | RRIRIRPPRLPRPRPRPDQIPRP | -0.0795
65 | RRIRHRPPRLPRPRPRPYWSPRP | -0.171
66 | RRIRTRPPRLPRPRPRPARRPRP | 0.204

Row | Sequence | shrunken log2 fold change
67 | RRIRVRPPRLPRPRPRPIITPRP | -0.844
68 | RRIRIRPPRLPRPRPRPMFIPRP | -0.454
69 | RRIRIRPPRLPRPRPRPIYQPRP | -0.00516
70 | RRIRYRPPRLPRPRPRPEGGPRP | 0.0214
71 | RRIRQRPPRLPRPRPRPYSNPRP | -0.0703
72 | RRIRERPPRLPRPRPRPCVRPRP | -0.447
73 | RRIRKRPPRLPRPRPRPRPAPRP | 0.758
74 | RRIRPRPPRLPRPRPRPCMEPRP | -0.106
75 | RRIRSRPPRLPRPRPRPAREPRP | 0.0982
76 | RRIRWRPPRLPRPRPRPTEGPRP | 0.0765
77 | RRIRARPPRLPRPRPRPLERPRP | -0.0328
78 | RRIRWRPPRLPRPRPRPKTAPRP | 0.203
79 | RRIRDRPPRLPRPRPRPRFMPRP | -0.0192
80 | RRIRRRPPRLPRPRPRPHAWPRP | 0.438
81 | RRIRYRPPRLPRPRPRPYFPPRP | -0.702
82 | RRIRHRPPRLPRPRPRPVDYPRP | -0.253
83 | RRIRTRPPRLPRPRPRPFWLPRP | -0.0299
84 | RRIRARPPRLPRPRPRPHQEPRP | 0.568
85 | RRIRKRPPRLPRPRPRPRVIPRP | 0.0832
86 | RRIRWRPPRLPRPRPRPSYNPRP | -0.343
87 | RRIRDRPPRLPRPRPRPHYIPRP | -1.02
88 | RRIRGRPPRLPRPRPRPNQIPRP | 0.109

Row | Sequence | shrunken log2 fold change
89 | RRIRHRPPRLPRPRPRPMHFPRP | -0.0161
90 | RRIRLRPPRLPRPRPRPYRIPRP | -0.796
91 | RRIRYRPPRLPRPRPRPLNFPRP | -1.01
92 | RRIRWRPPRLPRPRPRPPLQPRP | 0.475
93 | RRIRNRPPRLPRPRPRPKTCPRP | 0.0411
94 | RRIRRRPPRLPRPRPRPKILPRP | -0.199
95 | RRIRWRPPRLPRPRPRPIRRPRP | -0.00924
96 | RRIRSRPPRLPRPRPRPIDIPRP | -0.3
97 | RRIRWRPPRLPRPRPRPYFMPRP | -0.834
98 | RRIRGRPPRLPRPRPRPPEFPRP | 1.01
99 | RRIRFRPPRLPRPRPRPREWPRP | 0.112
100 | RRIRYRPPRLPRPRPRPCIVPRP | -0.246
101 | RRIRRRPPRLPRPRPRPIWIPRP | -0.32
102 | RRIRWRPPRLPRPRPRPMRGPRP | 0.754
103 | RRIRKRPPRLPRPRPRPAYNPRP | 0.0771
104 | RRIRQRPPRLPRPRPRPKIIPRP | -0.367
105 | RRIRRRPPRLPRPRPRPLAMPRP | -0.0111
106 | RRIRRRPPRLPRPRPRPSEWPRP | -0.15
107 | RRIRYRPPRLPRPRPRPSTTPRP | -0.717
108 | RRIRQRPPRLPRPRPRPHSIPRP | 0.0425
109 | RRIRMRPPRLPRPRPRPYFWPRP | -0.13
